The stoichiometry N is the number of molecules, sites or subunits per partner or assembly.

Drawing on paper PMC7613265, this text covers binding and stoichiometry N for two substances.

The target of series [1] is RNase E (1-850), catalytically inactive, truncated degradosome scaffold;RhlB;Enolase D303N;D346N (Escherichia coli;Escherichia coli;Escherichia coli) (UniProt P21513+P0A8J8+P0A6P9). Kind of series: SEC-SAXS. The following applies: SEC-SAXS buffer not given in the material. EMSA (30S ribosomal subunit, not listed because it is a ribonucleoprotein): 40 mM Tris-HCl pH 7.5, 100 mM NaCl …. In general terms: SEC sorts molecules by how far they enter the pores of the column.

Series [2] concerns the target RNase E (1-850) (E. coli) (UniProt P21513). The series is described as follows: AUC; sedimentation velocity, truncated degradosome at 4 mg/ml in buffer S6 (50 mM Tris-HCl pH 7.5, 400 mM NaCl, 100 mM KCl, 5 mM MgCl2, 1 mM TCEP, 0.02% beta-DDM, 10% glycerol), 4 C.

On to “GAAGCUGUUUUGGCGGAUGAGAGAAGAUUUUCAGCCUGAUACAGAUUAAAUCAGAACGCAGAAGCGGUCUGAUAAAACAGAAUUUGCCUGGCGGCAGUAGCGCGGUGGUCCCACCUGACCCCAUGCCGAACUCAGAAGUGAAACGCCGUAGCGCCGAUGGUAGUGUGGGGUCUCCCCAUGCGAGAGUAGGGAACUGCCAGGCAUCAAAUAAAACGAAAGGCUCAGUCGAAAGACUGGGCCUUUCG [9S RNA (5S rRNA precursor)]”, for which, in series [1], the binding result was “binds”.
As to “RNase E (1-850) (from UniProt P21513 1-850) (domain or fragment)”, the stoichiometry N in series [2] came out at 4.
